For five sequences, activity (% fluorescent cells) results are on record in patent US20110189729.

The data set addresses lambda integrase Int-h/218 h/218 mutant (substitutions not given) (Bacteriophage lambda) (UniProt P03700). Kind of data set: cell_activity. The note with it: CHO-DG44.

“TCTGTTACAGGTCACTAATACCATCTAAGTAGTTGATTCATAGTGACTGCATATGTTGTGTTTTACAGTATTATGTAGTCTGTTTTTTATGCAAAATCTAATTTAATATATTGATATTTATATCATTTTACGTTTCTCGTTCAGCTTTTTTATACTAAGTTGGCATTATAAAAAAGCATTGCTTATCAATTTGTTGCAACGAACAGGTCACTATCAGTCAAAATAAAATCATTATTTGATTTC / GAAATCAAATAATGATTTTATTTTGACTGATAGTGACCTGTTCGTTGCAACAAATTGATAAGCAATGCTTTTTTATAATGCCAACTTAGTATAAAAAAGCTGAACGAGAAACGTAAAATGATATAAATATCAATATATTAAATTAGATTTTGCATAAAAAACAGACTACATAATACTGTAAAACACAACATATGCAGTCACTATGAATCAACTACTTAGATGGTATTAGTGACCTGTAACAGA / TCTGTTACAGGTCACTAATACCATCTAAGTAGTTGATTCATAGTGACTGCATATGTTGTGTTTTACAGTATTATGTAGTCTGTTTTTTATGCAAAATCTAATTTAATATATTGATATTTATATCATTTTACGTTTCTCGTTCAGCTTTTTTATACTAACTTG / CAAGTTAGTATAAAAAAGCTGAACGAGAAACGTAAAATGATATAAATATCAATATATTAAATTAGATTTTGCATAAAAAACAGACTACATAATACTGTAAAACACAACATATGCAGTCACTATGAATCAACTACTTAGATGGTATTAGTGACCTGTAACAGA [attP ; attR]”: the activity (% fluorescent cells) (attP x attR, with IHF and XIS) worked out at 2.3.

With “TCTGTTACAGGTCACTAATACCATCTAAGTAGTTGATTCATAGTGACTGCATATGTTGTGTTTTACAGTATTATGTAGTCTGTTTTTTATGCAAAATCTAATTTAATATATTGATATTTATATCATTTTACGTTTCTCGTTCAGCTTTTTTATACTAAGTTGGCATTATAAAAAAGCATTGCTTATCAATTTGTTGCAACGAACAGGTCACTATCAGTCAAAATAAAATCATTATTTGATTTC / GAAATCAAATAATGATTTTATTTTGACTGATAGTGACCTGTTCGTTGCAACAAATTGATAAGCAATGCTTTTTTATAATGCCAACTTAGTATAAAAAAGCTGAACGAGAAACGTAAAATGATATAAATATCAATATATTAAATTAGATTTTGCATAAAAAACAGACTACATAATACTGTAAAACACAACATATGCAGTCACTATGAATCAACTACTTAGATGGTATTAGTGACCTGTAACAGA / TCTGTTACAGGTCACTAATACCATCTAAGTAGTTGATTCATAGTGACTGCATATGTTGTGTTTTACAGTATTATGTAGTCTGTTTTTTATGCAAAATCTAATTTAATATATTGATATTTATATCATTTTACGTTTCTCGTTCAGCTTTTTTATACTAAGTTGGCATTATAAAAAAGCATTGCTTATCAATTTGTTGCAACGAACAGGTCACTATCAGTCAAAATAAAATCATTATTTGATTTC / GAAATCAAATAATGATTTTATTTTGACTGATAGTGACCTGTTCGTTGCAACAAATTGATAAGCAATGCTTTTTTATAATGCCAACTTAGTATAAAAAAGCTGAACGAGAAACGTAAAATGATATAAATATCAATATATTAAATTAGATTTTGCATAAAAAACAGACTACATAATACTGTAAAACACAACATATGCAGTCACTATGAATCAACTACTTAGATGGTATTAGTGACCTGTAACAGA [attP ; attP]”, the activity (% fluorescent cells) (attP x attP, no IHF plasmid) worked out at 1.9.

With “TCTGTTACAGGTCACTAATACCATCTAAGTAGTTGATTCATAGTGACTGCATATGTTGTGTTTTACAGTATTATGTAGTCTGTTTTTTATGCAAAATCTAATTTAATATATTGATATTTATATCATTTTACGTTTCTCGTTCAGCTTTTTTATACTAAGTTGGCATTATAAAAAAGCATTGCTTATCAATTTGTTGCAACGAACAGGTCACTATCAGTCAAAATAAAATCATTATTTGATTTC / GAAATCAAATAATGATTTTATTTTGACTGATAGTGACCTGTTCGTTGCAACAAATTGATAAGCAATGCTTTTTTATAATGCCAACTTAGTATAAAAAAGCTGAACGAGAAACGTAAAATGATATAAATATCAATATATTAAATTAGATTTTGCATAAAAAACAGACTACATAATACTGTAAAACACAACATATGCAGTCACTATGAATCAACTACTTAGATGGTATTAGTGACCTGTAACAGA / GCTGTTACAGGTCACTAATACCATCTACGTAGTTGATTCATATTGTCTGCATATCTTGTGTTTTACAGTATTATCTAGTCTGTTTTTTATCCAAAATCTAATTTATTATATTGATATTTATATCATTTTACGTTTCTCGTTCAGCTTTTTTATACTAACTTG / CAAGTTAGTATAAAAAAGCTGAACGAGAAACGTAAAATGATATAAATATCAATATAATAAATTAGATTTTGGATAAAAAACAGACTAGATAATACTGTAAAACACAAGATATGCAGACAATATGAATCAACTACGTAGATGGTATTAGTGACCTGTAACAGC [attP ; attR.b]”, where the note is “attP x attR.b, with IHF and XIS”, the activity (% fluorescent cells) is 1.1. For “CTGCTTTTTTATACTAAGTTGGCATTATAAAAAAGCATTGCTTATCAATTTGTTGCAACGAACAGGTCACTATCAGTCAAAATATAATCATTATTTGATTTC / GAAATCAAATAATGATTATATTTTGACTGATAGTGACCTGTTCGTTGCAACAAATTGATAAGCAATGCTTTTTTATAATGCCAACTTAGTATAAAAAAGCAG / GCTGTTACAGGTCACTAATACCATCTATGTAGTTGATTCATATTGTCTGCATATCTTGTGTTTTACAGTATTATCTAGTCTGTTTTTTATCCAAAATCTAATTTATTATATTGATATTTATATCATTTTACGTTTCTCGTTCAGCTTTTTTATACTAACTTG / CAAGTTAGTATAAAAAAGCTGAACGAGAAACGTAAAATGATATAAATATCAATATAATAAATTAGATTTTGGATAAAAAACAGACTAGATAATACTGTAAAACACAAGATATGCAGACAATATGAATCAACTACATAGATGGTATTAGTGACCTGTAACAGC [attL.a ; attR.a]”, under “attL.a x attR.a, with IHF and XIS, PCR verified”, the activity (% fluorescent cells) was 2.3. As to “GCTGTTACAGGTCACTAATACCATCTACGTAGTTGATTCATATTGTCTGCATATCTTGTGTTTTACAGTATTATCTAGTCTGTTTTTTATCCAAAATCTAATTTATTATATTGATATTTATATCATTTTACGTTTCTCGTTCAGCTTTTTTATACTAAGTTGGCATTATAAAAAAGCATTGCTTATCAATTTGTTGCAACGAACAGGTCACTATCAGTCAAAATATAATCATTATTTGATTTC / GAAATCAAATAATGATTATATTTTGACTGATAGTGACCTGTTCGTTGCAACAAATTGATAAGCAATGCTTTTTTATAATGCCAACTTAGTATAAAAAAGCTGAACGAGAAACGTAAAATGATATAAATATCAATATAATAAATTAGATTTTGGATAAAAAACAGACTAGATAATACTGTAAAACACAAGATATGCAGACAATATGAATCAACTACGTAGATGGTATTAGTGACCTGTAACAGC / GCTGTTACAGGTCACTAATACCATCTACGTAGTTGATTCATATTGTCTGCATATCTTGTGTTTTACAGTATTATCTAGTCTGTTTTTTATCCAAAATCTAATTTATTATATTGATATTTATATCATTTTACGTTTCTCGTTCAGCTTTTTTATACTAAGTTGGCATTATAAAAAAGCATTGCTTATCAATTTGTTGCAACGAACAGGTCACTATCAGTCAAAATATAATCATTATTTGATTTC / GAAATCAAATAATGATTATATTTTGACTGATAGTGACCTGTTCGTTGCAACAAATTGATAAGCAATGCTTTTTTATAATGCCAACTTAGTATAAAAAAGCTGAACGAGAAACGTAAAATGATATAAATATCAATATAATAAATTAGATTTTGGATAAAAAACAGACTAGATAATACTGTAAAACACAAGATATGCAGACAATATGAATCAACTACGTAGATGGTATTAGTGACCTGTAACAGC [attP.b ; attP.b]”, the activity (% fluorescent cells) (attP.b x attP.b, with IHF, 0.4% without IHF plasmid, 2% in Example 2 cotransfection without IHF (p190)) turned out to be 1.5.
